From US20040175378A1, “Selected antibody compositions and methods for binding to aminophospholipids” (Board of Regents, The University of Texas System, priority 2002, published 2004)

Key:
[1] = tested on: L540 human Hodgkin's lymphoma; experiment: 3G4 tumor treatment; assay type: in vivo, mice; conditions: subcutaneous L540 xenografts
Method: In the subcutaneous model, mice are typically injected with 1×10^7 cells in 0.2 ml. Mice are not anesthetized, but are restrained using a steady grip of mouse skin exposing the right flank. A 1 ml syringe with a 23 gauge needle is used to inject 1×10^7 cells in 200 μl, just under the skin of the mice and a bleb will be seen. It is not unusual to observe a small amount of fluid leak from the injection site. A twisting motion may be used when withdrawing the needle from the subcutaneous injection to reduce this leakage. Tumor volume is measured by L×W×H.
Treatment was repeated 3 times a week. Animals were monitored twice a week for tumor measurements.

bEnd.3 cells = experiment: Growth of bEnd.3 cells in vitro; assay type: cell-based; conditions: 20 μg to 40 μg total IgG per well, 48 and 96 hours
Method: 20% DMEM alone (control) or 20% DMEM containing the antibodies (20 μg to 40 μg total IgG per well) was added 4 hours after seeding. Each clone was tested on two separate plates in triplicates. Cells were detached 48 and 96 hours later, the cell count was determined in each well and the average cell number per treatment was calculated.

apoptotic tumor cells = experiment: Dendritic cell uptake of apoptotic tumor cells; assay type: cell-based; conditions: Fc(γ)R mediated internalization of 3G4-ATC complexes
tumor cells = experiment: Direct effect of 3G4 on tumor cells in vitro; assay type: cell-based
[2] = tested on: Tissue Factor (TF)-induced coagulation
[3] = mouse, in vivo, iv
various tumors = experiment: 3G4 in syngeneic and xenogeneic tumor models, overall
human CMV AD169 = experiment: CMV-GFP infected HHF-R2 cells, fluorescent microscopy; conditions: MOI 0.01

B1: 3G4: mouse IgG3 kappa monoclonal antibody binding PS and other anionic phospholipids; hybridoma ATCC PTA 4545 (antibody, V domains shown)
VH: EVQLQQSGPELEKPGASVKLSCKASGYSFTGYNMNWVKQSHGKSLEWIGHIDPYYGDTSYNQKFRGKATLTVDKSSSTAYMQLKSLTSEDSAVYYCVKGGYYGHWYFDVWGAGTTVTVSSATTTAPSVYPLVP
VL: DIQMTQSPSSLSASLGERVSLTCRASQDIGSSLNWLQQGPDGTIKRLIYATSSLDSGVPKRFSGSRSGSDYSLTISSLESEDFVDYYCLQYVSSPPTFGAGTKLELKRADAAPTVFIFGRIP
For B1, the growth retardation [1] was 65%, the “inhibitory effect on growth of bEnd.3 cells” value (bEnd.3 cells) was “particularly effective” and the “enhancement of DC uptake of apoptotic tumor cells” value (apoptotic tumor cells) was 300%. The “direct inhibitory effect on tumor cells” value (tumor cells) was “No direct inhibitory effect on tumor cells was observed”, the “inhibition of Tissue Factor (TF)-induced coagulation” value [2] was “weak inhibition” and the Volume of distribution [3] was 0.1 L/kg. For the same molecule, the “half-life in the α-phase of clearance” value [3] was 3 h, the “half-life in the β-phase of clearance” value [3] was 120 h and the “toxicity in treated tumor-bearing mice” value (various tumors; 100 μg i.p. 3 times a week) was “No toxicity was observed”. For the same molecule, the “localization after intravenous injection” value (various tumors; mice bearing various tumors) was “specifically and consistently localized to the tumor, but not to normal organs”, the “entry of the virus into the cells” value (human CMV AD169; day 3, 50 and 100 μg/ml) was “does not appear to significantly inhibit the entry of the virus” and the “spread of CMV from the original infected cell” value (human CMV AD169; day 9, 100 and 50 μg/ml) was “restricted to the original singly-infected cell”.
